Experimental findings from the supplement of paper PMC10567573 are described below.

The labels stand for the following.
B1: EPB41L3 (parent)
chain: KKFLTLGSKFRYSGRTQAQTRRAS
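Note: lentivirally expressed fusions sorted by FACS into six bins by GFP to DsRed ratio, PSI derived from sequencing read proportions per bin multiplied by bin number.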

The data set covers variants of B1. As to the kind of experiment: protein stability index of a GFP-peptide fusion (GPS, HEK-293T) (PSI 1-6); higher = more stable. As to conditions: c terminus: a fixed tail appended.
Consider KKFLTLGSKFHYSGRTQAQTRRAS [R11H], for which the protein stability index turned out to be 3.7.

On to KKFLTLGSKFDYSGRTQAQTRRAS [R11D], for which the protein stability index was found to be 4.24.

As for KKFLTLGSKFPYSGRTQAQTRRAS [R11P], the protein stability index came to 3.08.

Turning to KKFLTLGSKFVYSGRTQAQTRRAS [R11V], the protein stability index was 3.17.

In the case of KKFLTLGSKFGYSGRTQAQTRRAS [R11G], the protein stability index is 3.57.

In the case of KKFLTLGSKFKYSGRTQAQTRRAS [R11K], the protein stability index came out at 2.92.

On to KKFLTLGSKFNYSGRTQAQTRRAS [R11N], for which the protein stability index was 2.63.

In the case of KKFLTLGSKFTYSGRTQAQTRRAS [R11T], the protein stability index was determined as 3.6.

Regarding KKFLTLGSKFAYSGRTQAQTRRAS [R11A], the protein stability index was found to be 3.11.

On to KKFLTLGSKFFYSGRTQAQTRRAS [R11F], for which the protein stability index came out at 2.48.

As to KKFLTLGSKFIYSGRTQAQTRRAS [R11I], the protein stability index turned out to be 2.89.

For the variant KKFLTLGSKFCYSGRTQAQTRRAS [R11C], the protein stability index amounted to 3.96.

With KKFLTLGSKFLYSGRTQAQTRRAS [R11L], the protein stability index turned out to be 2.43.

For KKFLTLGSKFSYSGRTQAQTRRAS [R11S], the protein stability index is 3.4.

With KKFLTLGSKFRYSGRTQPQTRRAS [A18P], the protein stability index is 2.92.

As to KKFLTLGSKFRYSGRTQTQTRRAS [A18T], the protein stability index came to 3.1.

Consider KKFLTLGSKFRYSGRTQEQTRRAS [A18E], for which the protein stability index was 3.23.

Turning to KKFLTLGSKFRYSGRTQIQTRRAS [A18I], the protein stability index was determined as 2.91.

On to KKFLTLGSKFRYSGRTQLQTRRAS [A18L], for which the protein stability index is 2.44.

With KKFLTLGSKFRYSGRTQHQTRRAS [A18H], the protein stability index was 2.49.

For the variant KKFLTLGSKFRYSGRTQVQTRRAS [A18V], the protein stability index worked out at 2.84.

For the variant KKFLTLGSKFRYSGRTQNQTRRAS [A18N], the protein stability index was found to be 3.55.

Turning to KKFLTLGSKFRYSGRTQMQTRRAS [A18M], the protein stability index turned out to be 2.77.

As to KKFLTLGSKFRYSGRTQSQTRRAS [A18S], the protein stability index came out at 3.19.

Consider KKFLTLGSKFRYSGRTQKQTRRAS [A18K], for which the protein stability index is 2.61.

Turning to KKFLTLGSKFRYSGRTQQQTRRAS [A18Q], the protein stability index came to 2.73.

On to KKFLTLGSKFRYSGRTQYQTRRAS [A18Y], for which the protein stability index stood at 3.11.

Take KKFLTLGSKFRYSGRTQFQTRRAS [A18F]: the protein stability index was found to be 2.44.

As to KKFLTLGSKFRYSRRTQAQTRRAS [G14R], the protein stability index is 3.38.

Take KKFLTLGSKFRYSVRTQAQTRRAS [G14V]: the protein stability index stood at 2.96.

As to KKFLTLGSKFRYSLRTQAQTRRAS [G14L], the protein stability index amounted to 4.04.

Regarding KKFLTLGSKFRYSPRTQAQTRRAS [G14P], the protein stability index is 3.46.

For the variant KKFLTLGSKFRYSMRTQAQTRRAS [G14M], the protein stability index worked out at 3.71.

Take KKFLTLGSKFRYSHRTQAQTRRAS [G14H]: the protein stability index amounted to 3.57.

For the variant KKFLTLGSKFRYSQRTQAQTRRAS [G14Q], the protein stability index is 3.56.

As for KKFLTLGSKFRYSERTQAQTRRAS [G14E], the protein stability index was 3.75.

Consider KKFLTLGSKFRYSSRTQAQTRRAS [G14S], for which the protein stability index came to 3.34.

As to KKFLTLGSKFRYSTRTQAQTRRAS [G14T], the protein stability index amounted to 3.81.

With KKFLTLGSKFRYSIRTQAQTRRAS [G14I], the protein stability index turned out to be 2.44.

On to KKFLTLGSKFRYSCRTQAQTRRAS [G14C], for which the protein stability index stood at 2.06.

For the variant KKFLTLGSKFRYSFRTQAQTRRAS [G14F], the protein stability index is 2.56.

On to KKFLTLGSKFRYSKRTQAQTRRAS [G14K], for which the protein stability index stood at 3.1.

For the variant KKFLTLGSKFRYSARTQAQTRRAS [G14A], the protein stability index came to 3.42.

As to KKFLTLGSKFRYSYRTQAQTRRAS [G14Y], the protein stability index came out at 3.03.

Turning to KKFLTLGSKFRYSDRTQAQTRRAS [G14D], the protein stability index stood at 2.81.

In the case of KKFLTLGSKFRYSNRTQAQTRRAS [G14N], the protein stability index stood at 3.67.

Consider KKFLTLGSKFRYSWRTQAQTRRAS [G14W], for which the protein stability index was found to be 4.87.

For the variant KKFLTLGSKFRYSGKTQAQTRRAS [R15K], the protein stability index stood at 2.85.

On to KKFLTLGSKFRYSGETQAQTRRAS [R15E], for which the protein stability index was determined as 2.89.

In the case of KKFLTLGSKFRYSGNTQAQTRRAS [R15N], the protein stability index amounted to 2.77.

As for KKFLTLGSKFRYSGATQAQTRRAS [R15A], the protein stability index amounted to 3.32.

Turning to KKFLTLGSKFRYSGTTQAQTRRAS [R15T], the protein stability index was determined as 3.4.

As for KKFLTLGSKFRYSGDTQAQTRRAS [R15D], the protein stability index is 3.81.

Turning to KKFLTLGSKFRYSGCTQAQTRRAS [R15C], the protein stability index amounted to 2.66.

On to KKFLTLGSKFRYSGITQAQTRRAS [R15I], for which the protein stability index was determined as 2.19.

For the variant KKFLTLGSKFRYSGQTQAQTRRAS [R15Q], the protein stability index was 3.3.

With KKFLTLGSKFRYSGWTQAQTRRAS [R15W], the protein stability index is 2.05.

For KKFLTLGSKFRYSGYTQAQTRRAS [R15Y], the protein stability index came out at 2.16.

As for KKFLTLGSKFRYSGMTQAQTRRAS [R15M], the protein stability index was 2.49.

With KKFLTLGSKFRYSGFTQAQTRRAS [R15F], the protein stability index amounted to 2.19.

As to KKFLTLGSKFRYSGVTQAQTRRAS [R15V], the protein stability index was 2.93.

In the case of KKFLTLGSKFRYSGLTQAQTRRAS [R15L], the protein stability index turned out to be 2.64.

With KKFLTLGSKFRYSGGTQAQTRRAS [R15G], the protein stability index was 2.33.

In the case of KKFLTLGSKFRYSGHTQAQTRRAS [R15H], the protein stability index was found to be 3.12.

With KKFLTLGSKFRYSGSTQAQTRRAS [R15S], the protein stability index amounted to 2.53.

Take KKFLTLGSKFRYSGPTQAQTRRAS [R15P]: the protein stability index turned out to be 2.58.

KKFLTLGSKFRYSGRTDAQTRRAS [Q17D]: the protein stability index stood at 2.95.

In the case of KKFLTLGSKFRYSGRTFAQTRRAS [Q17F], the protein stability index was 1.76.

KKFLTLGSKFRYSGRTRAQTRRAS [Q17R]: the protein stability index turned out to be 2.95.

For the variant KKFLTLGSKFRYSGRTSAQTRRAS [Q17S], the protein stability index came to 2.01.

For the variant KKFLTLGSKFRYSGRTYAQTRRAS [Q17Y], the protein stability index was 2.12.

With KKFLTLGSKFRYSGRTAAQTRRAS [Q17A], the protein stability index was 2.32.

Regarding KKFLTLGSKFRYSGRTHAQTRRAS [Q17H], the protein stability index worked out at 3.25.

For KKFLTLGSKFRYSGRTEAQTRRAS [Q17E], the protein stability index stood at 2.76.

As for KKFLTLGSKFRYSGRTLAQTRRAS [Q17L], the protein stability index turned out to be 2.77.

For KKFLTLGSKFRYSGRTNAQTRRAS [Q17N], the protein stability index turned out to be 2.01.

As for KKFLTLGSKFRYSGRTTAQTRRAS [Q17T], the protein stability index amounted to 2.38.

Consider KKFLTLGSKFRYSGRTGAQTRRAS [Q17G], for which the protein stability index amounted to 2.63.

For KKFLTLGSKFRYSGRTKAQTRRAS [Q17K], the protein stability index stood at 2.11.

Consider KKFLTLGSKFRYSGRTIAQTRRAS [Q17I], for which the protein stability index was found to be 2.57.

On to KKFLTLGSKFRYSGRTCAQTRRAS [Q17C], for which the protein stability index came to 2.94.

In the case of KKFLTLGSKFRYSGRTVAQTRRAS [Q17V], the protein stability index worked out at 2.24.

Take KKFLTLGSKFRYSGRTMAQTRRAS [Q17M]: the protein stability index came out at 2.77.

For the variant KKFLTLYSKFRYSGRTQAQTRRAS [G7Y], the protein stability index was found to be 3.02.

For KKFLTLTSKFRYSGRTQAQTRRAS [G7T], the protein stability index came out at 3.58.

Take KKFLTLWSKFRYSGRTQAQTRRAS [G7W]: the protein stability index was 1.52.

For the variant KKFLTLSSKFRYSGRTQAQTRRAS [G7S], the protein stability index was 3.04.

On to KKFLTLQSKFRYSGRTQAQTRRAS [G7Q], for which the protein stability index came to 2.85.

KKFLTLPSKFRYSGRTQAQTRRAS [G7P]: the protein stability index turned out to be 3.18.

For the variant KKFLTLVSKFRYSGRTQAQTRRAS [G7V], the protein stability index was found to be 2.26.

In the case of KKFLTLGSKFRYSGRTQAFTRRAS [Q19F], the protein stability index came to 2.1.

On to KKFLTLGSKFRYSGRTQAHTRRAS [Q19H], for which the protein stability index is 2.52.

As for KKFLTLGSKFRYSGRTQAETRRAS [Q19E], the protein stability index worked out at 2.69.

As for KKFLTLGSKFRYSGRTQADTRRAS [Q19D], the protein stability index is 1.2.
